# Measurements as given in the supplement of paper PMC9170038.
# Tested on: MS2 coat protein
# Assay: apparent KD of MS2 coat protein, switch ON state; designed switch direction (-1 OFF switch, 1 ON switch): 1; higher = weaker reporter binding
# Conditions: FMN input: 0 or 200 uM; Eterna round: R93 (includes R88 designs)
# Procedure, shortened: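 For every design, apparent KD is the median of normalised binding-curve fits from its clusters. The RNA switches were transcribed on-chip from Illumina sequencing clusters and titrated with SNAP-549-labelled MS2 coat protein (twofold steps, 0.7 or 1.5 nM to 3 µM; 0.8–1.5 h to 10–20 min per step). Titrations used 100 mM Tris-HCl pH 7.5, 80 mM KCl, 4 mM MgCl2, without or with constant ligand.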
row,Sequence,apparent KD of MS2 coat protein [nM]
1,AUAAAAUAAAGUCAGGAUAUCCAUAAUAAAACAUGAGGAUCACCCAUGUUAAAAAAAAGAUCAUGGGAGAAGGGACAAAAUAAAU [SS2 M 33],28.6
2,CGGAGACAUGAGGAUCACCCAUGUGAGAAGAGGCGAGGAUAUCGAAAGAAAGAAGAGAAACGAGAAGGCGCGAGGA [salish99-SS1-067],22.7
3,AAAAAACAUGAGGAUCACCCAUGUGCAAAAUUCGCAGGAUAUUUCUCAAUUAAAUGAGAGGAAGAAGGGUGACAAA [Nob's Hobby 28 - Jieux - Same State 1],95.9
4,GAAAAACAUGAGGAUCACCCAUGUAGAAACUAGGGAGGAUAUACUAAGACGAAAGUCGAAGUAGAAGGCCUUUAAA [Same State 1.4m (Mat - Mod of Eli - )],14.2
5,AAGAAAGAAACGUAGGAUAUCAAGAAUAUAACAUGAGGAUCACCCAUGUAAAUACGAAAGUAUAAUGAGAAGGAUGGAUGAUCUUC [Mod of Mat of Meechl],22.7
6,AGAAAACAUGAGGAUCACCCAUGUAGAAAUAUGGGAGGAUAUACAAAGACGAAAGUCAAAGUAGAAGGCCUAAAGA [Mat - Same State 1 - Eli mod - 33],19
7,AGAAAACAUGAGGAUCACCCAUGUAGAAAUAUGGGAGGAUAUACAAGGACGAAAGUCAAGGUAGAAGGCCUAAAGA [Mat - Same State 1 - Meechl mod - D127],22.8
8,AGACAUAACAGAGAGGAUAUCCAAUAGAAAACAUGAGGAUCACCCAUGUGAAAGAAAAUAAAAUGGGAGAAGGCUCACAUACAGA [Topaz 39],5.57
9,AAAAGACAUGAGGAUCACCCAUGUCCUCGGACAUGAGGAUAUGUACAGACUUCGGUCUGUACAGAAGGCAUGUAAA [SS1 - 1070],47.3
10,AAAAGACAUGAGGAUCACCCAUGUGAAAACGUGCGAGGAUAUGUAUGGAAACCAUACUGUACAGAAGGCGCGUGUC [SS1 - 83],24.4
11,CGAGUACAUGAGGAUCACCCAUGUUAUGAAUUGUCAGGAUAUGGAUAAAGGUGACAUGCGCCAGAAGGGACGUAUG [JR_SS001_Sub1006],36.9
12,GAGAGACAUGAGGAUCACCCAUGUAGGAUUAUGGGAGGAUAUACAAAGACGAGAGUCAGAGUAGAAGGCCUAGGAU [salish99-ss1-138(!)],21.2
13,AACAAUCUAUCUGAGGAUAUCAUGUAAAAGACAUGAGGAUCACCCAUGUAGCAGGAAACUGCAUAUGAGAAGGCAGAUAGAUUGA [SS2: 1120],18.4
14,AAAACACAUGAGGAUCACCCAUGUGCAAAAUUCGCAGGAUAUUUCUCAAUUAAAUGAAAGGAAGAAGGGUGAUAAA [Nob's Hobby 34 - Jieux - Same State 1],19.4
15,UAACUACAUGAGGAUCACCCAUGUCUCCAGGGUCAAGGAUAUGGGCGUAGACAAACUACACCAGAAGGUGAUCCAA [Rireenon],156
16,GAAAAACAUGAGGAUCACCCAUGUGAAAACUUGGGAGGAUAUACAAAGACGAAAGUCGAAGUAGAAGGCCUAAAAG [Same State 1.4k (Mat - Mod of Eli - )],17.2
17,GAAGACAUAGUUCAGGAUAUAUGAAUAGUCACAUGAGGAUCACCCAUGUGCAUUUAUAUGCGCACAUAGAAGGGAGGUAGUUAUC [SameState2 Malc#24],33.6
18,AGAAAUAAAAGAGAGGAUAUCCAAAAGAAAACAUGAGGAUCACCCAUGUGAAAGAAAAGAAAAUGGGAGAAGGCUCAAAAUAAGA [Topaz 18],22.5
19,AAAAAACAUGAGGAUCACCCAUGUCAAAAGACGUGAGGAUAUGUACAGACUUCGGUCUGUACAGAAGGCACGUCAA [SS1 - 1043],15.9
20,AGGAGACAUGAGGAUCACCCAUGUGAGAAGAGGCGAGGAUAUCGAAAGAAAGAAGAGAAACGAGAAGGCGCGAGAU [salish99-SS1-021],25.1
21,AAAAAACAUGAGGAUCACCCAUGUGACAACAUGGGAGGAUAUACGAAGACGAGAGUCGAAGUAGAAGGCCUAAAAG [Garnet 78],117
22,AAAAAACAUGAGGAUCACCCAUGUAACACUCAUGUAGGAUAUACAAAAAAAAAAAAAAAAGUAGAAGGACAAAAAA [Omei A variation 3],143

row,Sequence,apparent KD of MS2 coat protein [nM]
1,UAAAAACAUGAGGAUCACCCAUGUAAGAUAAACACAGGAUAUGCGAAAAGAAAGAAAGAAGCAGAAGGGUGAAAAU [Mat - Same State 1 - Tesla mod - 43],15.9
2,CAAACAACAGCACAGGAUAUCCAUAUAAUAACAUGAGGAUCACCCAUGUAAGCGGAAAAUAACGCGGAGAAGGGUGAACACACAA [Default title],130
3,AGAAAACAUGAGGAUCACCCAUGUGACAAUAUGGGAGGAUAUACGAACACGAAAGUCGAAGUAGAAGGCCUAAAGA [Garnet 53],26.3
4,AAAAGACAUGAGGAUCACCCAUGUUAAGACGUGGGAGGAUAUGCAUGGAAAACAUGCUGUGCAGAAGGCCCGUGUC [SS1 - 23],19.8
5,AAAAAACAUGAGGAUCACCCAUGUAAUACAACGUCAGGAUAUUGAUUUUAUUAUGUAUUGCAAGAAGGGACAAAAA [Same State 1.3 (Same State 1 - Omei 2 - one GC added)],161
6,AAAAAACAUGAGGAUCACCCAUGUGAGAACAUGGGAGGAUAUACAAGGACGAGAGUCAAGGUAGAAGGCCUAAAGA [Mat - Same State 1 - Mod - D193],545
7,AAAAAACAUGAGGAUCACCCAUGUGCAAAAUUCGCAGGAUAUUCUUUUUUUAAAUGAGAGGGAGAAGGGUGUAAAA [Nob's Hobby 21 - Jieux - Same State 1],25.5
8,GGAAAUAACAGAGAGGAUAUCCAAAGGAAAACAUGAGGAUCACCCAUGUAAAAGGAAGGAAAUUGGGAGAAGGCUCAAAAUAAAU [salish99-ss2-015],20.4
9,AGAAAUAAAGCUGAGGAUAUGGGAAAAUUCACAUGAGGAUCACCCAUGUAAAAGAAAAUAAAAAACCAGAAGGCAGCAAAUAAGA [Designing denovo 6],27.6
10,AGAAAACAUGAGGAUCACCCAUGUAGAAAUAUGGGAGGAUAUACAAAGACGAAAGUCGAGGUAGAAGGCCUAAAGA [Mat - Same State 1 - Meechl mod - D122],21.7
11,AAUAUAUUAAGUGAGGAUAUCAAGAAAAAAACAUGAGGAUCACCCAUGUGGGAAACAUGGUAGGGUGAGAAGGUACUUAAUAUAU [Samwise Clockwise 21 - Jieux - Same State 2],228
12,AAGAAAGAAACAUAGGAUAUCAAGAAUAUAACAUGAGGAUCACCCAUGUAAAUACGAAAGUAUAAUGAGAAGGAUGGAUGAUCUUC [Mat - Mod of Meechl],24.3
13,UAAAUACAUGAGGAUCACCCAUGUCAAGAGUAUUAAGGAUAUGAACCAGGGAACUGGCAGUCAGAAGGUGAGACUC [Ququeddi],235
14,AAAAAACAUGAGGAUCACCCAUGUGAAAAUAUGGGAGGAUAUCAUGGAAAAAAAAAAACAUGAGAAGGCCCAGAAA [SS! 1 MT 11],13.7
15,AUAAUAUUAAGCUAGGAUAUACUAAAGUAAACAUGAGGAUCACCCAUGUAAAAAAAAAAACUCAUGUAGAAGGAGCAUAAAUAAA [moonwalk 9],12.2
16,AUGGUGCAGGUACAGGAUAUGUUGCUCGUAACAUGAGGAUCACCCAUGUACCUAUGAGAUUAAAUGCAGAAGGGUGCACACCACG [Quorra],43.5
17,UACACGCGGGCGCAGGAUAUGUCGCUGGUGACAUGAGGAUCACCCAUGUAUACCAUUGCGGUUGAGCAGAAGGGUGAGACGCGUG [Matimare],15.1
18,AAAAAACAUGAGGAUCACCCAUGUCCAAAAAAAAAAGGAUAUGCAAAAAAAAAAAAAAAAGCAGAAGGUUUAAAAA [Same State 1],41.2
19,AUGGUCAAGUGUGAGGAUAUCCAGGCUCCCACAUGAGGAUCACCCAUGUUUAUUAGAGCGUAAAGGGAGAAGGUACGAACGCCAU [Esbibiti],15.6
20,"AAACCACAUGAGGAUCACCCAUGUAAAAAAUAUGGAGGAUAUACUAGAAGAAACAAAAUAGUAGAAGGCCAAAAAA [75%, Ex sub1, 29]",20.3
21,AAUACACAUGGUCAGGAUAUCGCAGCUAGGACAUGAGGAUCACCCAUGUAAUAAGUAAAAGUAAAUGAGAAGGGACAGGGUGACC [JR_SS002_Sub405],520
